In article PMC4604687, “A novel mechano-enzymatic cleavage mechanism underlies transthyretin amyloidogenesis” (EMBO Molecular Medicine, 2015):
One block for each binder: values may come before it.

Key:
Settings in all cases: both partners purified
[1] = target: T1, S52P transthyretin (S52P TTR), full-length protomer (residues 1–127) (UniProt P02766 21-147, S52P); assay: native MS; equimolar 50 uM light wild-type and heavy S52P TTR in PBS 3 days at 4°C, then overnight with trypsin at 37°C; each tetramer species isolated and activated (tandem MS, Q-TOFII, 40 V)
[2] = target: wild-type transthyretin (wild-type TTR) (UniProt P02766 21-147); assay: as above
[3] = target: T1, S52P transthyretin (S52P TTR), …; assay: native MS; TTR (S52P with or without limited trypsin proteolysis; wild type) in 200 mM ammonium acetate pH 7.4, nano-electrospray; 13+ charge state of the tetramer selected, acceleration voltage ramped 20 to 70 V (collision-induced dissociation)

binding result [1]: binds | binding result [2]: binds
B1: residue 49–127 fragment of S52P TTR (domain or fragment)
chain: not shown
notes: In the hybrid tetramer experiment the fragment comes from the 13C,15N-labelled S52P TTR; source: limited trypsin proteolysis of recombinant S52P TTR (cleavage at Lys48)

binding result [3]: binds
B2: tryptic peptide CPLMVK (peptide)
peptide: CPLMVK
notes: tryptic peptide seen as adduct on the S52P TTR tetramer; source: trypsin digestion of recombinant S52P TTR
